{"source": "patent US20240228627A1", "about": "“GALECTIN-1-SPECIFIC MONOVALENT ANTIBODIES AND USES THEREOF” (INSTITUT NATIONAL DE LA RECHERCHE SCIENTIFIQUE, priority 2021, published 2024)", "key": {"mouse galectin-1": {"target": "T1, mouse galectin-1 (Mus musculus, UniProt P16045)", "T1 construct": "made in house; host or cells: E. coli BL21 (DE3), pET-22b(+)", "T1 sequence (P16045 whole entry)": "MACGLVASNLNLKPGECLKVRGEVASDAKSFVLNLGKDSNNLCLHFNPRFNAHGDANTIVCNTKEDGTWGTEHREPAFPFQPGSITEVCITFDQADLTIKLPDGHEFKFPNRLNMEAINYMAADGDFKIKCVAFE", "assay": "microscale thermophoresis (MST) binding affinity, mouse galectin-1", "conditions": "Red-NHS labeled G1N1 (2 nM); 20 mM Tris-HCl 150 mM NaCl 0.1% F127", "procedure": "(§1) FIGS. 9A-C show the binding affinities evaluated by microscale thermophoresis (MST) using various ligands over a range of 16 ligand concentrations allowing to obtain a full concentration-response curve. FIG. 9A: Red-NHS labeled human GAL-1 (5 nM) incubated with G1N1 or alpha-lactose (a-lactose). FIG. 9B: Red-NHS labeled G1N1 (2 nM) was used to study the affinity of G1N1 for mouse and human galectin-1. […] All experiments were performed in 20 mM Tris-HCl 150 mM NaCl and 0.1% F127. Binding affinities (Kd values) were determined from the fitted curves (three parameter dose-response curve) obtained from data of at least 3 independent experiments. For each value, 95% confidence intervals (Cl) are indicated.\n(§2) Microscale thermophoresis (MST. Galectins were labeled using the RED-NHS labeling kit (Nanotemper Technologies, Germany) in accordance with the manufacturer's protocol. Unreacted dye was removed using the provided purification columns. Binding affinity assays were performed in 20 mM Tris-HCl, 150 mM NaCl and 0.1% F127. Samples were loaded into standard Monolith NT.115 capillaries and microscale thermophoresis was measured using a Monolith NT.115 Pico instrument (Nanotemper Technologies, Germany) at ambient temperature. Binding affinities (Kd values) were determined from the fitted curves (three parameter dose-response curve)."}, "[1]": {"target": "T2, recombinant human GAL-1 (rhGAL-1) (Homo sapiens, UniProt P09382)", "T2 construct": "made in house; host or cells: E. coli BL21 (DE3), pET-22b(+)", "T2 sequence (P09382 whole entry)": "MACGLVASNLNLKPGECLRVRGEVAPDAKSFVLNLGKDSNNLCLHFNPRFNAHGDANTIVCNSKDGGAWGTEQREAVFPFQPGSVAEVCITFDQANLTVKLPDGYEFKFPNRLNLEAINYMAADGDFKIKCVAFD", "assay": "inhibition of galectin-1-induced apoptosis of Jurkat T cells (annexin V/propidium iodide flow cytometry)", "type": "cell-based", "conditions": "rhGAL-1 2.25 μM, 4 h at 37° C., increasing concentrations of nanobody", "procedure": "Briefly, Jurkat T cells were incubated with recombinant human GAL-1 (rhGAL-1; 2.25 μM) for 4h at 37° C. in presence of increasing concentrations of G1N1 and G1N2. Apoptosis was measured by flow cytometry using conventional annexin V/propidium iodide staining. Results represent data recorded on 5000 cells. Errors bars represent standard deviation.\nJurkat T cells were incubated with increasing concentrations of G1N1 pre-incubated with rhGAL-1 (2.25 μM) for 4 h at 37° C., after which apoptosis was measured by flow cytometry using Annexin V/propidium iodide staining. 5000 events were recorded. Errors bars represent standard deviation.\nApoptosis of human T cells. In vitro apoptosis assays were carried out using the standard in vitro human Jurkat T cell model system, fluorescein isothiocyanate (FITC)-labeled annexin V (Biolegend, San Diego, CA, USA) and propidium iodide (PI). Briefly, recombinant galectin-1 was pre-incubated for 1 h at 4° C. in serum free RPMI 1640 medium before addition to Jurkat cells. The mixture was incubated at 37° C. for 4 h. Cells were then washed once in PBS and once in binding buffer (0.01 M HEPES, 0.14 M NaCl, 2.5 mM CaCl2, pH 7.4). For staining, cells were incubated for 15 min with FITC-labeled annexin V in the dark at room temperature. The PI (0.25 μg/mL) stain was added to cells just before analysis by flow cytometry."}, "mouse GAL-7": {"target": "T3, mouse GAL-7 (Mus musculus, UniProt O54974)", "T3 sequence (O54974 1-136)": "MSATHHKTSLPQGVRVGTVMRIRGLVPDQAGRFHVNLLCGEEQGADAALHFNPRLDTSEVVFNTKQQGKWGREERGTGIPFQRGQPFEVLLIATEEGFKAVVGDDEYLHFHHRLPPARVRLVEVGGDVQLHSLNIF", "assay": "microscale thermophoresis (MST) binding, mouse GAL-7", "conditions": "at 10 μM; Red-NHS labeled G1N1 (2 nM)", "procedure": "as §1, §2"}, "human GAL-8": {"target": "T4, human GAL-8 (Homo sapiens, UniProt O00214)", "T4 sequence (O00214 1-317)": "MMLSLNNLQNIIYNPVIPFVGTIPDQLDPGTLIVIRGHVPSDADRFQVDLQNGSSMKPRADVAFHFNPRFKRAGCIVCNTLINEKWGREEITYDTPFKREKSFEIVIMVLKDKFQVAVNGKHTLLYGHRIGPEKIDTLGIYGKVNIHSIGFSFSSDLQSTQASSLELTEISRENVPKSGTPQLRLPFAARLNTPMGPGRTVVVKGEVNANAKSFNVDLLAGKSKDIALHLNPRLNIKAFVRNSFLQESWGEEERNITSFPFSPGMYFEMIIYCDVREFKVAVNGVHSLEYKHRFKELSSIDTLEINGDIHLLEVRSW", "assay": "microscale thermophoresis (MST) binding, human GAL-8", "conditions": "at 10 μM; Red-NHS labeled G1N1 (2 nM)", "procedure": "as §1, §2"}, "human galectin-1": {"target": "T5, human galectin-1 (Homo sapiens, UniProt P09382)", "T5 construct": "made in house; host or cells: E. coli BL21 (DE3), pET-22b(+)", "T5 sequence (P09382 whole entry)": "as the sequence (P09382 whole entry) above", "assay": "microscale thermophoresis (MST) binding affinity, human galectin-1", "procedure": "as §1, §2"}, "[2]": {"target": "T6, GAL-1-Biotin (biotinylated human GAL-1) (Homo sapiens, UniProt P09382)", "T6 construct": "made in house; host or cells: E. coli BL21 (DE3), pET-22b(+)", "T6 sequence (P09382 whole entry)": "as the sequence (P09382 whole entry) above", "assay": "non-adsorbed phage ELISA of VHH clones on GAL-1-Biotin", "type": "binding", "conditions": "HRP-conjugated anti-M13 antibody, TMB substrate; 282 clones tested", "procedure": "Generation and production of single chain camelid antibodies. Galectin-specific single chain (VHH) camelid antibodies were obtained following in vitro screening of a non-immune humanized synthetic single domain antibodies (hsd2Ab) library that contains more than 3×10^9 clones expressed at the surface of M13 phage [Moutel et al., 2016]. The panning was carried out against immobilized recombinant human galectin-1 devoid of carbohydrate in its glycan binding site (GBS). Prior to the phage display selection, galectin-1-biotin and GST-Biotin were bound to streptavidin magnetic beads (Dynabeads® M-280 Streptavidin, Life Technologies) with a 50 nM final concentration of biotinylated protein for the first round and 10 nM final concentration of biotinylated protein for the second and third rounds. […] Following three-rounds of phage display, clones were picked randomly and analyzed by non-adsorbed phage ELISA using HRP-conjugated anti-M13 antibody (GE Healthcare) and a colorimetric substrate (TMB, tetramethylbenzidine, Thermo Fischer).\nFollowing an initial pre-screen round of phage display carried out with GST-biotin to deplete the library from unspecific binders, unbound VHHs were incubated with GAL-1-Biotin beads. […] A total of 282 VHHs were then picked and analyzed by ELISA for galectin-1 binders."}, "human GAL-7 [3]": {"target": "T7, human GAL-7 (Homo sapiens, UniProt P47929)", "T7 construct": "made in house; host or cells: E. coli BL21 (DE3), pET-22b(+)", "T7 sequence (P47929 whole entry)": "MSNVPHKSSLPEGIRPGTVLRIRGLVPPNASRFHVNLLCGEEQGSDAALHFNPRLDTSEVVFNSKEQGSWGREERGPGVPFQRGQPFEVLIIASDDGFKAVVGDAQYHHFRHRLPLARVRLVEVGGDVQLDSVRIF", "assay": "microscale thermophoresis (MST) binding, human GAL-7", "conditions": "at 10 μM; Red-NHS labeled G1N1 (2 nM)", "procedure": "as §1, §2"}, "human GAL-13": {"target": "T8, human GAL-13 (Homo sapiens, UniProt Q9UHV8)", "T8 construct": "made in house; host or cells: E. coli BL21 (DE3), pET-22b(+)", "T8 sequence (Q9UHV8 1-139)": "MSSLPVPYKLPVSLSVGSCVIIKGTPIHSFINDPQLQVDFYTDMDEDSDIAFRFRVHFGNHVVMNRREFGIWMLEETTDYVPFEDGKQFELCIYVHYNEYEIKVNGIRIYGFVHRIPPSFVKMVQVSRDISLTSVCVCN", "assay": "microscale thermophoresis (MST) binding, human GAL-13", "conditions": "at 10 μM; Red-NHS labeled G1N1 (2 nM)", "procedure": "as §1, §2"}, "[4]": {"test_system": "human galectin-1 versus galectin-2, -7, -13 and -16", "assay": "ELISA binding of G1N1 to immobilized recombinant human galectins", "conditions": "human galectins immobilized at 1 and 5 μM; increasing concentrations of G1N1", "procedure": "Briefly, human galectins were immobilized at 1 and 5 μM for 16 h at 4° C. After a blocking step with PBS containing 10% (v/v) BSA (blocking buffer), increasing concentrations of G1N1 were added to each well and incubated for 1 h at room T° C. […] The colorimetric assay was carried out with 3,3′,5,5′-tetramethylbenzidine (Sigma-Aldrich, ON, Canada) according to the manufacturers recommendations.\nELISA assays. Recombinant human galectins were immobilized in 96-well plates at the indicated concentrations for 16 h at 4° C. After a blocking step with PBS containing 10% (v/v) bovine serum albumin (BSA) (blocking buffer), increasing concentrations of G1N1 were added to each well and incubated for 1 h at room temperature. […] The colorimetric assay was carried out with TMB (Sigma-Aldrich, MO, USA) according to the manufacturer's recommendations."}, "human GAL-7 [5]": {"target": "T7, human GAL-7", "assay": "inhibition of GAL-7-induced apoptosis of Jurkat T cells (annexin V/propidium iodide flow cytometry)", "type": "cell-based", "conditions": "human GAL-7 10 μM, 4 h at 37° C."}}, "note": "“Also recorded” adds a separate entry of the source."}
{"molecule": "G1N1: galectin-1-specific single-domain camelid VHH nanobody, SEQ ID NO:8; lead clone from phage display of a humanized synthetic library (protein, full sequence of G1N1 VHH) VHH: MAEVQLQASGGGFVQPGGSLRLSCAASGSTFSEDAMGWFRQAPGKEREFVSAISGFANPHSYYADSVKGRFTISRDNSKNTVYLQMNSLRAEDTATYYCAASHKKTRAPAATFETYWGQGTQVTVSS", "values": [{"measurement": "binding affinity (Kd) for mouse recombinant galectin-1 by MST", "setting": "mouse galectin-1", "result": "in the nanomolar range"}, {"measurement": "inhibition of galectin-1-induced apoptosis of Jurkat T cells", "setting": "[1]", "result": "strong and significant inhibition"}, {"measurement": "binding to mouse GAL-7 by MST", "setting": "mouse GAL-7", "result": "does not bind; also recorded: no binding was detected"}, {"measurement": "binding to human GAL-8 by MST", "setting": "human GAL-8", "result": "does not bind; also recorded: no binding was detected"}, {"measurement": "affinity for galectin-1 relative to the affinity of lactose for galectin-1", "setting": "human galectin-1; MST, Red-NHS labeled human GAL-1 (5 nM) with G1N1 or alpha-lactose", "result": "approximately 200 fold"}, {"measurement": "binding affinity (Kd) for human recombinant galectin-1 by MST", "setting": "human galectin-1; Red-NHS labeled G1N1 (2 nM), 20 mM Tris-HCl 150 mM NaCl 0.1% F127", "result": "in the nanomolar range"}, {"measurement": "binding in phage ELISA in the presence of GAL-1-Biotin", "setting": "[2]", "result": "strong binding; also recorded: strong positive hit"}, {"measurement": "binding to human GAL-7 by MST", "setting": "human GAL-7 [3]", "result": "does not bind; also recorded: no binding was detected"}, {"measurement": "binding to human GAL-13 by MST", "setting": "human GAL-13", "result": "does not bind; also recorded: no binding was detected"}, {"measurement": "specificity for galectin-1 by ELISA against galectin-2, -7, -13 and -16", "setting": "[4]", "result": "specificity of G1N1 for galectin-1 was confirmed"}, {"measurement": "inhibition of GAL-7-induced apoptosis of Jurkat T cells", "setting": "human GAL-7 [5]", "result": "did not inhibit; also recorded: No significant inhibition"}]}
